Laboratory results taken from patent US20170190753A1 (LABORATOIRE FRANCAIS DU FRACTIONNEMENT ET DES …, published 2017).

B1: pCEP4-1NT7-10CT20 (other)
chain: EDCNELPPRRNTEILTGSWSDQTYPEGTQAIYKCRPGYRSLGNVIMVCRKGEWVALNPLRKCQKRPCGHPGDTPFGTFTLTGGNVFEYGVKAVYTCNEGYQLLGEINYRECDTDGWTNDIPICEVVKCLPVTAPENGKIVSSAMEPDREYHFGQAVRFVCNSGYKIEGDEEMHCSDDGFWSKEKPKCVEISCKSPDVINGSPISQKIIYKENERFQYKCNMGYEYSERGDAVCTESGWRPLPSCEEKSCDNPYIPNGDYSPLRIKHRTGDEITYQCRNGFYPATRGNTAKCTSTGWIPAPRCTLKPCDYPDIKHGGLYHENMRRPYFPVAVGKYYSYYCDEHFETPSGSYWDHIHCTQDGWSPAVPCLRKCYFPYLENGYNQNYGRKFVQGKSIDVACHPGYALPKAQTTVTCMENGWSPTPRCIRVKTGASGCELPKIDVHLVPDRKKDQYKVGEVLKFSCKPGFTIVGPNSVQCYHFGLSPDLPICKEQVQSCGPPPELLNGNVKEKTKEEYGHSEVVEYYCNPRFLMKGPNKIQCVDGEWTTLPVCIVEESTCGDIPELEHGWAQLSSPPYYYGDSVEFNCSESFTMIGHRSITCIHGVWTQLPQCVAIDKLKKCKSSNLIILEEHLKNKKEFDHNSNIRYRCRGKEGWIHTVCINGRWDPEVNCSMAQIQLCPPPPQIPNSHNMTTTLNYRDGEKVSVLCQENYLIQEGEEITCKDGRWQSIPLCVEKIPCSQPPQIEHGTINSSRSSQESYAHGTKLSYTCEGGFRISEENETTCYMGKWSSPPQCEGLPCKSPPEISHGVVAHMSDSYQYGEEVTYKCFEGFGIDGPAIAKCLGEKWSHPPSCIKTDCLSLPSFENAIPMGEKKDVYKAGEQVTYTCATYYKMDGASNVTCINSRWTGRPTCRDTSCVNPPTVQNAYIVSRQMSKYPSGERVRYQCRSPYEMFGDEEVMCLNGNWTEPPQCKDSTGKCGPPPPIDNGDITSFPLSVYAPASSVEYQCQNLYQLEGNKRITCRNGQWSEPPKCLHPCVISREIMENYNIALRWTAKQKLYSRTGESVEFVCKRGYRLSSRSHTLRTTCWDGKLEYPTCAKRGGSGHHHHHH
B2: pCEP4-1NT8-14CT20 (other)
chain: EDCNELPPRRNTEILTGSWSDQTYPEGTQAIYKCRPGYRSLGNVIMVCRKGEWVALNPLRKCQKRPCGHPGDTPFGTFTLTGGNVFEYGVKAVYTCNEGYQLLGEINYRECDTDGWTNDIPICEVVKCLPVTAPENGKIVSSAMEPDREYHFGQAVRFVCNSGYKIEGDEEMHCSDDGFWSKEKPKCVEISCKSPDVINGSPISQKIIYKENERFQYKCNMGYEYSERGDAVCTESGWRPLPSCEEKSCDNPYIPNGDYSPLRIKHRTGDEITYQCRNGFYPATRGNTAKCTSTGWIPAPRCTLKPCDYPDIKHGGLYHENMRRPYFPVAVGKYYSYYCDEHFETPSGSYWDHIHCTQDGWSPAVPCLRKCYFPYLENGYNQNHGRKFVQGKSIDVACHPGYALPKAQTTVTCMENGWSPTPRCIRVKTCSKSSIDIENGFISESQYTYALKEKAKYQCKLGYVTADGETSGSITCGKDGWSAQPTCIKSGASGCPPPPQIPNSHNMTTTLNYRDGEKVSVLCQENYLIQEGEEITCKDGRWQSIPLCVEKIPCSQPPQIEHGTINSSRSSQESYAHGTKLSYTCEGGFRISEENETTCYMGKWSSPPQCEGLPCKSPPEISHGVVAHMSDSYQYGEEVTYKCFEGFGIDGPAIAKCLGEKWSHPPSCIKTDCLSLPSFENAIPMGEKKDVYKAGEQVTYTCATYYKMDGASNVTCINSRWTGRPTCRDTSCVNPPTVQNAYIVSRQMSKYPSGERVRYQCRSPYEMFGDEEVMCLNGNWTEPPQCKDSTGKCGPPPPIDNGDITSFPLSVYAPASSVEYQCQNLYQLEGNKRITCRNGQWSEPPKCLHPCVISREIMENYNIALRWTAKQKLYSRTGESVEFVCKRGYRLSSRSHTLRTTCWDGKLEYPTCAKRGGSGHHHHHH
B3: pCEP4-1NT10-11CT20 (other)
chain: EDCNELPPRRNTEILTGSWSDQTYPEGTQAIYKCRPGYRSLGNVIMVCRKGEWVALNPLRKCQKRPCGHPGDTPFGTFTLTGGNVFEYGVKAVYTCNEGYQLLGEINYRECDTDGWTNDIPICEVVKCLPVTAPENGKIVSSAMEPDREYHFGQAVRFVCNSGYKIEGDEEMHCSDDGFWSKEKPKCVEISCKSPDVINGSPISQKIIYKENERFQYKCNMGYEYSERGDAVCTESGWRPLPSCEEKSCDNPYIPNGDYSPLRIKHRTGDEITYQCRNGFYPATRGNTAKCTSTGWIPAPRCTLKPCDYPDIKHGGLYHENMRRPYFPVAVGKYYSYYCDEHFETPSGSYWDHIHCTQDGWSPAVPCLRKCYFPYLENGYNQNHGRKFVQGKSIDVACHPGYALPKAQTTVTCMENGWSPTPRCIRVKTCSKSSIDIENGFISESQYTYALKEKAKYQCKLGYVTADGETSGSITCGKDGWSAQPTCIKSCDIPVFMNARTKNDFTWFKLNDTLDYECHDGYESNTGSTTGSIVCGYNGWSDLPICYERECELPKIDVHLVPDRKKDQYKVGEVLKFSCKPGFTIVGPNSVQCYHFGLSPDLPICKEQVQSGASGCGPPPELLNGNVKEKTKEEYGHSEVVEYYCNPRFLMKGPNKIQCVDGEWTTLPVCIVEESTCGDIPELEHGWAQLSSPPYYYGDSVEFNCSESFTMIGHRSITCIHGVWTQLPQCVAIDKLKKCKSSNLIILEEHLKNKKEFDHNSNIRYRCRGKEGWIHTVCINGRWDPEVNCSMAQIQLCPPPPQIPNSHNMTTTLNYRDGEKVSVLCQENYLIQEGEEITCKDGRWQSIPLCVEKIPCSQPPQIEHGTINSSRSSQESYAHGTKLSYTCEGGFRISEENETTCYMGKWSSPPQCEGLPCKSPPEISHGVVAHMSDSYQYGEEVTYKCFEGFGIDGPAIAKCLGEKWSHPPSCIKTDCLSLPSFENAIPMGEKKDVYKAGEQVTYTCATYYKMDGASNVTCINSRWTGRPTCRDTSCVNPPTVQNAYIVSRQMSKYPSGERVRYQCRSPYEMFGDEEVMCLNGNWTEPPQCKDSTGKCGPPPPIDNGDITSFPLSVYAPASSVEYQCQNLYQLEGNKRITCRNGQWSEPPKCLHPCVISREIMENYNIALRWTAKQKLYSRTGESVEFVCKRGYRLSSRSHTLRTTCWDGKLEYPTCAKRGGSGHHHHHH
B4: pCEP4-1NT9-14CT20 (other)
chain: EDCNELPPRRNTEILTGSWSDQTYPEGTQAIYKCRPGYRSLGNVIMVCRKGEWVALNPLRKCQKRPCGHPGDTPFGTFTLTGGNVFEYGVKAVYTCNEGYQLLGEINYRECDTDGWTNDIPICEVVKCLPVTAPENGKIVSSAMEPDREYHFGQAVRFVCNSGYKIEGDEEMHCSDDGFWSKEKPKCVEISCKSPDVINGSPISQKIIYKENERFQYKCNMGYEYSERGDAVCTESGWRPLPSCEEKSCDNPYIPNGDYSPLRIKHRTGDEITYQCRNGFYPATRGNTAKCTSTGWIPAPRCTLKPCDYPDIKHGGLYHENMRRPYFPVAVGKYYSYYCDEHFETPSGSYWDHIHCTQDGWSPAVPCLRKCYFPYLENGYNQNYGRKFVQGKSIDVACHPGYALPKAQTTVTCMENGWSPTPRCIRVKTCSKSSIDIENGFISESQYTYALKEKAKYQCKLGYVTADGETSGSITCGKDGWSAQPTCIKSCDIPVFMNARTKNDFTWFKLNDTLDYECHDGYESNTGSTTGSIVCGYNGWSDLPICYEREGASGCPPPPQIPNSHNMTTTLNYRDGEKVSVLCQENYLIQEGEEITCKDGRWQSIPLCVEKIPCSQPPQIEHGTINSSRSSQESYAHGTKLSYTCEGGFRISEENETTCYMGKWSSPPQCEGLPCKSPPEISHGVVAHMSDSYQYGEEVTYKCFEGFGIDGPAIAKCLGEKWSHPPSCIKTDCLSLPSFENAIPMGEKKDVYKAGEQVTYTCATYYKMDGASNVTCINSRWTGRPTCRDTSCVNPPTVQNAYIVSRQMSKYPSGERVRYQCRSPYEMFGDEEVMCLNGNWTEPPQCKDSTGKCGPPPPIDNGDITSFPLSVYAPASSVEYQCQNLYQLEGNKRITCRNGQWSEPPKCLHPCVISREIMENYNIALRWTAKQKLYSRTGESVEFVCKRGYRLSSRSHTLRTTCWDGKLEYPTCAKRGGSGHHHHHH
B5: pCEP4-1NT9-10CT20 (other)
chain: EDCNELPPRRNTEILTGSWSDQTYPEGTQAIYKCRPGYRSLGNVIMVCRKGEWVALNPLRKCQKRPCGHPGDTPFGTFTLTGGNVFEYGVKAVYTCNEGYQLLGEINYRECDTDGWTNDIPICEVVKCLPVTAPENGKIVSSAMEPDREYHFGQAVRFVCNSGYKIEGDEEMHCSDDGFWSKEKPKCVEISCKSPDVINGSPISQKIIYKENERFQYKCNMGYEYSERGDAVCTESGWRPLPSCEEKSCDNPYIPNGDYSPLRIKHRTGDEITYQCRNGFYPATRGNTAKCTSTGWIPAPRCTLKPCDYPDIKHGGLYHENMRRPYFPVAVGKYYSYYCDEHFETPSGSYWDHIHCTQDGWSPAVPCLRKCYFPYLENGYNQNYGRKFVQGKSIDVACHPGYALPKAQTTVTCMENGWSPTPRCIRVKTCSKSSIDIENGFISESQYTYALKEKAKYQCKLGYVTADGETSGSITCGKDGWSAQPTCIKSCDIPVFMNARTKNDFTWFKLNDTLDYECHDGYESNTGSTTGSIVCGYNGWSDLPICYEREGASGCELPKIDVHLVPDRKKDQYKVGEVLKFSCKPGFTIVGPNSVQCYHFGLSPDLPICKEQVQSCGPPPELLNGNVKEKTKEEYGHSEVVEYYCNPRFLMKGPNKIQCVDGEWTTLPVCIVEESTCGDIPELEHGWAQLSSPPYYYGDSVEFNCSESFTMIGHRSITCIHGVWTQLPQCVAIDKLKKCKSSNLIILEEHLKNKKEFDHNSNIRYRCRGKEGWIHTVCINGRWDPEVNCSMAQIQLCPPPPQIPNSHNMTTTLNYRDGEKVSVLCQENYLIQEGEEITCKDGRWQSIPLCVEKIPCSQPPQIEHGTINSSRSSQESYAHGTKLSYTCEGGFRISEENETTCYMGKWSSPPQCEGLPCKSPPEISHGVVAHMSDSYQYGEEVTYKCFEGFGIDGPAIAKCLGEKWSHPPSCIKTDCLSLPSFENAIPMGEKKDVYKAGEQVTYTCATYYKMDGASNVTCINSRWTGRPTCRDTSCVNPPTVQNAYIVSRQMSKYPSGERVRYQCRSPYEMFGDEEVMCLNGNWTEPPQCKDSTGKCGPPPPIDNGDITSFPLSVYAPASSVEYQCQNLYQLEGNKRITCRNGQWSEPPKCLHPCVISREIMENYNIALRWTAKQKLYSRTGESVEFVCKRGYRLSSRSHTLRTTCWDGKLEYPTCAKRGGSGHHHHHH

Molecular target: C3 convertase complex (UniProt P01024 23-1663; P00751 260-764)
Sequence (P01024 23-1663, chain 1 of 2): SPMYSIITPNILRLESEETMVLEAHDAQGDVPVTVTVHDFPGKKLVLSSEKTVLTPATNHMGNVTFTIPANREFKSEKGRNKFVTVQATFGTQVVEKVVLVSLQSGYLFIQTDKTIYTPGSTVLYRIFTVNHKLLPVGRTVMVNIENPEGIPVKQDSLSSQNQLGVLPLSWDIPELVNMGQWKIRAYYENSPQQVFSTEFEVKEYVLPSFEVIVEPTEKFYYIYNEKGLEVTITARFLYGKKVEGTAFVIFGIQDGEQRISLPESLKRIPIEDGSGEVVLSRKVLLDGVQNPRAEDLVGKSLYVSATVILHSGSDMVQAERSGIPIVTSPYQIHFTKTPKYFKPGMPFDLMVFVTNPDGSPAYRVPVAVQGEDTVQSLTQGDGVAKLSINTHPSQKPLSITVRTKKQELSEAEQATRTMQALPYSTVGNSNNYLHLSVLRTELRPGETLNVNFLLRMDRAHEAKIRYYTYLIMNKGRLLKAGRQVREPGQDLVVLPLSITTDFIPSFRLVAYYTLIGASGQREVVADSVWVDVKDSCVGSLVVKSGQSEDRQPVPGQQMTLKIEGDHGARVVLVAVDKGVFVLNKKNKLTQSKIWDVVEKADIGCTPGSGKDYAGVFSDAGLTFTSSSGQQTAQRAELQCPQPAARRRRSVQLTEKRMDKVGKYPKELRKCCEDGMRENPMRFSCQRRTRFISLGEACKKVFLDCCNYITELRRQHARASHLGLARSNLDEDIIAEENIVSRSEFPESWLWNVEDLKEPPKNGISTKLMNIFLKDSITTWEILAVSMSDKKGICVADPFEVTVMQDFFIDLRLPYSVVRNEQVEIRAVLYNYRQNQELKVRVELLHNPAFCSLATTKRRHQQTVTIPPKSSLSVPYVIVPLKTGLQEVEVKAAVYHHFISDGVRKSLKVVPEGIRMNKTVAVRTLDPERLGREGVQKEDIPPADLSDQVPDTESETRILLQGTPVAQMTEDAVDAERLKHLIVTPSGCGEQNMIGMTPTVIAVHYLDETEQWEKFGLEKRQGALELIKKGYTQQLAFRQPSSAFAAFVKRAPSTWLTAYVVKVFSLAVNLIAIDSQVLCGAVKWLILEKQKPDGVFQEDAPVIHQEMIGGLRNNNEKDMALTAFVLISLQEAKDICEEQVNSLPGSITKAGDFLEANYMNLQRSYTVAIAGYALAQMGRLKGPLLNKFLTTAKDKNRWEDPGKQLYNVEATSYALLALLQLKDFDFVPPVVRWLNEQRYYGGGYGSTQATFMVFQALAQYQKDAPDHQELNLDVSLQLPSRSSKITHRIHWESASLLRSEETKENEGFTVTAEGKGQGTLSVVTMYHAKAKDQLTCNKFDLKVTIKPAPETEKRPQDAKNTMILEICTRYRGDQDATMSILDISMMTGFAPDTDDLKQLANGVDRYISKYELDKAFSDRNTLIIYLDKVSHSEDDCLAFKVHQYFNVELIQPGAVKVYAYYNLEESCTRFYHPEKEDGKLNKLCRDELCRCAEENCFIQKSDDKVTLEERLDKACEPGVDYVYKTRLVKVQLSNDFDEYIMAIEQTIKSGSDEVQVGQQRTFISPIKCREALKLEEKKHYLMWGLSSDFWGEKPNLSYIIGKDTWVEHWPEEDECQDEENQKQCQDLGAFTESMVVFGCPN
Sequence (P00751 260-764, chain 2 of 2): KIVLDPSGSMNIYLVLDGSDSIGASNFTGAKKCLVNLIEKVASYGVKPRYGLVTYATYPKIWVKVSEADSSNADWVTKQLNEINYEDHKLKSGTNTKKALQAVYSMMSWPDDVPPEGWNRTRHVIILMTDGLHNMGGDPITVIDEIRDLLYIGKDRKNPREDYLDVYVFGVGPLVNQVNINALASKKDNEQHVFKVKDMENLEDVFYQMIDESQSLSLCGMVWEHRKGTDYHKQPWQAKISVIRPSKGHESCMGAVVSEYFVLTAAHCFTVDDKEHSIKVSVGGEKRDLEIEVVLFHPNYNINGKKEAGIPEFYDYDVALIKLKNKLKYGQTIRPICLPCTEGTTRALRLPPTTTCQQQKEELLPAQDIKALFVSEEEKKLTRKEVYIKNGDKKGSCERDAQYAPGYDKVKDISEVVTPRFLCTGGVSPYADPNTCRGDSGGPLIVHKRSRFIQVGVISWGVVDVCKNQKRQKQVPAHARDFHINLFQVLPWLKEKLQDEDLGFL
Test: cell-based or functional assay
Wherever C3 convertase activity % of the control is given: test concentration or dose not given here.

Binder	C3 convertase activity % of the control	C3 convertase activity IC50
B1	59 % of the control	0.602 µg/mL
B2	61 % of the control	0.645 µg/mL
B3	58 % of the control	0.612 µg/mL
B4	64 % of the control	0.57 µg/mL
B5	64 % of the control	0.552 µg/mL
